In IntAct's records for PubMed 24843023:

B1: Bone marrow stromal antigen 2 (Homo sapiens), Q10589 (parent)
chain: MASTSYDYCRVPMEDGDKRCKLLLGIGILVLLIIVILGVPLIIFTIKANSEACRDGLRAVMECRNVTHLLQQELTEAQKGFQDVEAQAATCNHTVMALMASLDAEKAQGQKKVEELEGEITTLNHKLQDASAEVERLRRENQVLSVRIADKKYYPSSQDSSSAAAPQLLIVLLGLSALLQ
partner: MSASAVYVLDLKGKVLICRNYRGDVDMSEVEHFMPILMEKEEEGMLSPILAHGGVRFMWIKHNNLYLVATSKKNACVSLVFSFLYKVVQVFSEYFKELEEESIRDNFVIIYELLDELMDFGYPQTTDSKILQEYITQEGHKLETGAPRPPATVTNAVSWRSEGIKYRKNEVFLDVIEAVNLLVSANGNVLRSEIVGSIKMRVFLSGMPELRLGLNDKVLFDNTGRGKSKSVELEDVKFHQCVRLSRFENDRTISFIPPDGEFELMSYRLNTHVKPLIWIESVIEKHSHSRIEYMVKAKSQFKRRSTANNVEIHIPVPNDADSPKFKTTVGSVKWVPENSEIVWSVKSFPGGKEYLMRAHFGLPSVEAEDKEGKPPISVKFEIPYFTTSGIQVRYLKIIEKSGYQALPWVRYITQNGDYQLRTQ
B2: Protein Vpu (Human immunodeficiency virus type 1 group M subtype B (isolate SF162)), P19554 (parent)
chain: MQPLQILAIVALVVAAIIAIVVWTIVYIEYRKILRQRKIDRLIDRITERAEDSGNESEGDQEELSALVERGHLAPWDVDDL
B3: AP-1 complex subunit mu-1 (Mus musculus), P35585 (parent)
chain: B1 partner

Variants of: B1
Conditions: with ap1m1_mouse Ap1m1, P35585

Variant	effect of a mutation on the interaction
MASTSADACRVPMEDGDKRCKLLLGIGILVLLIIVILGVPLIIFTIKANSEACRDGLRAVMECRNVTHLLQQELTEAQKGFQDVEAQAATCNHTVMALMASLDAEKAQGQKKVEELEGEITTLNHKLQDASAEVERLRRENQVLSVRIADKKYYPSSQDSSSAAAPQLLIVLLGLSALLQ	disrupting interaction
MASTSYDACRVPMEDGDKRCKLLLGIGILVLLIIVILGVPLIIFTIKANSEACRDGLRAVMECRNVTHLLQQELTEAQKGFQDVEAQAATCNHTVMALMASLDAEKAQGQKKVEELEGEITTLNHKLQDASAEVERLRRENQVLSVRIADKKYYPSSQDSSSAAAPQLLIVLLGLSALLQ	disrupting interaction
MASTSYDYCRAPMEDGDKRCKLLLGIGILVLLIIVILGVPLIIFTIKANSEACRDGLRAVMECRNVTHLLQQELTEAQKGFQDVEAQAATCNHTVMALMASLDAEKAQGQKKVEELEGEITTLNHKLQDASAEVERLRRENQVLSVRIADKKYYPSSQDSSSAAAPQLLIVLLGLSALLQ	disrupting interaction
MASTSADYCRVPMEDGDKRCKLLLGIGILVLLIIVILGVPLIIFTIKANSEACRDGLRAVMECRNVTHLLQQELTEAQKGFQDVEAQAATCNHTVMALMASLDAEKAQGQKKVEELEGEITTLNHKLQDASAEVERLRRENQVLSVRIADKKYYPSSQDSSSAAAPQLLIVLLGLSALLQ	disrupting interaction

Variants of: B2
Conditions: with fbw1a_human BTRC

Variant	effect of a mutation on the interaction
S53N;S57N	decreasing interaction

Variants of: B3
Conditions: with bst2_human BST2, Q10589

Variant	effect of a mutation on the interaction
MSASAVYVLDLKGKVLICRNYRGDVDMSEVEHFMPILMEKEEEGMLSPILAHGGVRFMWIKHNNLYLVATSKKNACVSLVFSFLYKVVQVFSEYFKELEEESIRDNFVIIYELLDELMDFGYPQTTDSKILQEYITQEGHKLETGAPRPPATVTNAVSWRSEGIKYRKNEVFLAVIEAVNLLVSANGNVLRSEIVGSIKMRVFLSGMPELRLGLNDKVLFDNTGRGKSKSVELEDVKFHQCVRLSRFENDRTISFIPPDGEFELMSYRLNTHVKPLIWIESVIEKHSHSRIEYMVKAKSQFKRRSTANNVEIHIPVPNDADSPKFKTTVGSVKWVPENSEIVWSVKSFPGGKEYLMRAHFGLPSVEAEDKEGKPPISVKFEIPYFTTSGIQVRYLKIIEKSGYQALPWVRYITQNGDYQLRTQ [D174A]	disrupting interaction

Variants of: B3
Conditions: with tgon3_rat Ttgn1, P19814
tgon3_rat Ttgn1, P19814, sequence (P19814 whole entry): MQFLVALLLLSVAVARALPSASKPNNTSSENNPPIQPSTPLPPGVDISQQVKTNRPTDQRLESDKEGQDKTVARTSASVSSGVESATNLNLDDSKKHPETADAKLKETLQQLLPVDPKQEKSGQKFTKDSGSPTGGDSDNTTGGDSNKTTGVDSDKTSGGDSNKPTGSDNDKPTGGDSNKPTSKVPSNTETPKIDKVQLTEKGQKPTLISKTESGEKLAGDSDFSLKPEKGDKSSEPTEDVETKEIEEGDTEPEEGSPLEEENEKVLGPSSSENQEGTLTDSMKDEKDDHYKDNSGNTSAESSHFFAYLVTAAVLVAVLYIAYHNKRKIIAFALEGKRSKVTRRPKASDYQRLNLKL

Variant	effect of a mutation on the interaction
MSASAVYVLDLKGKVLICRNYRGDVDMSEVEHFMPILMEKEEEGMLSPILAHGGVRFMWIKHNNLYLVATSKKNACVSLVFSFLYKVVQVFSEYFKELEEESIRDNFVIIYELLDELMDFGYPQTTDSKILQEYITQEGHKLETGAPRPPATVTNAVSWRSEGIKYRKNEVFLAVIEAVNLLVSANGNVLRSEIVGSIKMRVFLSGMPELRLGLNDKVLFDNTGRGKSKSVELEDVKFHQCVRLSRFENDRTISFIPPDGEFELMSYRLNTHVKPLIWIESVIEKHSHSRIEYMVKAKSQFKRRSTANNVEIHIPVPNDADSPKFKTTVGSVKWVPENSEIVWSVKSFPGGKEYLMRAHFGLPSVEAEDKEGKPPISVKFEIPYFTTSGIQVRYLKIIEKSGYQALPWVRYITQNGDYQLRTQ [D174A]	disrupting interaction
